# Results from PMC11334799.
# How the values were obtained:
# human C3b (human) [1] = target: human C3b (human) (UniProt P01024); experiment: BLI
# human C3b (human) [2] = target: human C3b (human) (UniProt P01024)
# Sequence of human C3b (human) (P01024 23-667, chain 1 of 2): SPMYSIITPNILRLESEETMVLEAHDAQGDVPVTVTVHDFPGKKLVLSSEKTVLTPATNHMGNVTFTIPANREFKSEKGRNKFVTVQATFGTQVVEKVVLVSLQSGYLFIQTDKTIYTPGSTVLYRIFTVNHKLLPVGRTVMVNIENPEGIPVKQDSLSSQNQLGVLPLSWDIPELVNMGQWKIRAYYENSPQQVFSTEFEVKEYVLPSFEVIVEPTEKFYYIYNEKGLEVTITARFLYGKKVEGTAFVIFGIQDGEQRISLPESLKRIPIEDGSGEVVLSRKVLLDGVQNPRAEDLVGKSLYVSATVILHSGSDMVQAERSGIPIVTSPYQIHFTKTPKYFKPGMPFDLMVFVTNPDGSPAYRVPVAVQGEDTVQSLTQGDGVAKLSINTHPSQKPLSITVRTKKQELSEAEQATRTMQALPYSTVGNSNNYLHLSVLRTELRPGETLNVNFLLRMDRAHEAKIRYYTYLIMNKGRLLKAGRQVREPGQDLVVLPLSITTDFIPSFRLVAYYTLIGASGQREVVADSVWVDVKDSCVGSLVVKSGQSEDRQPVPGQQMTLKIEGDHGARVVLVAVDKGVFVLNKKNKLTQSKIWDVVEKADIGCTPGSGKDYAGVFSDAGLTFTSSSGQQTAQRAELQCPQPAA
# Sequence of human C3b (human) (P01024 749-1663, chain 2 of 2): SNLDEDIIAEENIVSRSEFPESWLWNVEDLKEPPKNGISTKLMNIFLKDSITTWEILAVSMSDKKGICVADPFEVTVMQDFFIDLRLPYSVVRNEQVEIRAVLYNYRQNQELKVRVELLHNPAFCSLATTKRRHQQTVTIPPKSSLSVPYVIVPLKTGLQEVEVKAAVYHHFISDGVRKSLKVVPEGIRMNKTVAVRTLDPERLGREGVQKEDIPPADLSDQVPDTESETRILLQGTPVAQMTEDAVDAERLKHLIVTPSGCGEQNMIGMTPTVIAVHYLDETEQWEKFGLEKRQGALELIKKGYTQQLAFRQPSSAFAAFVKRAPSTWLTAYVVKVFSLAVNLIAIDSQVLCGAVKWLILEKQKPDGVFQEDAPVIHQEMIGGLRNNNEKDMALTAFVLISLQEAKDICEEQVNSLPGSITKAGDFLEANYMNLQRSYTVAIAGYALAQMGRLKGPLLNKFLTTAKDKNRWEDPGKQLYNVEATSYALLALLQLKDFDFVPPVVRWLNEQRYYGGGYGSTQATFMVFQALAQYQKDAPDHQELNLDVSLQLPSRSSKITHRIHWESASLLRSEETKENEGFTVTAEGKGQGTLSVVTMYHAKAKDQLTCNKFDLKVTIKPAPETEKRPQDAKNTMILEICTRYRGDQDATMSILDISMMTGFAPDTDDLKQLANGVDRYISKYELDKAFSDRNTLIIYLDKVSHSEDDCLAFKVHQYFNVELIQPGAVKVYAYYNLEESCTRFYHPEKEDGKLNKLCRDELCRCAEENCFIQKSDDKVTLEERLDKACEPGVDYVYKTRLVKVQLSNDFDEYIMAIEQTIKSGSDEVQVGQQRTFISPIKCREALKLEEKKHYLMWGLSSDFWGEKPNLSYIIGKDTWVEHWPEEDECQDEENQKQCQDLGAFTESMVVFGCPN
substance,measurement,setting,value
"CG001, (CRIg-FH-IgG4 Fc) x2 (from UniProt Q9Y279 20-283; P08603 18-264) (Fc fusion)",Kd,human C3b (human) [1],4.24 nM
same,"AP-mediated hemolysis of rabbit erythrocytes (12% NHS), IC50",human C3b (human) [2],88.9 nM
same,"AP-mediated hemolysis of rabbit erythrocytes (12% NHS), IC95",human C3b (human) [2],207 nM
same,"CP-mediated hemolysis of sheep erythrocytes (0.2% hemolysin, 1% NHS), IC50",human C3b (human) [2],446 nM
same,"CP-mediated hemolysis of sheep erythrocytes (0.2% hemolysin, 1% NHS), IC95",human C3b (human) [2],34200 nM
